Laboratory results as given in paper doi:10.1101/2022.12.30.521597 (bioRxiv, 2022).
Like-named read-outs stand apart in the source and are kept apart here.

T1: CLuc-EXO70B2 (A. thaliana, UniProt Q9LMJ4 1-599)
T1 sequence: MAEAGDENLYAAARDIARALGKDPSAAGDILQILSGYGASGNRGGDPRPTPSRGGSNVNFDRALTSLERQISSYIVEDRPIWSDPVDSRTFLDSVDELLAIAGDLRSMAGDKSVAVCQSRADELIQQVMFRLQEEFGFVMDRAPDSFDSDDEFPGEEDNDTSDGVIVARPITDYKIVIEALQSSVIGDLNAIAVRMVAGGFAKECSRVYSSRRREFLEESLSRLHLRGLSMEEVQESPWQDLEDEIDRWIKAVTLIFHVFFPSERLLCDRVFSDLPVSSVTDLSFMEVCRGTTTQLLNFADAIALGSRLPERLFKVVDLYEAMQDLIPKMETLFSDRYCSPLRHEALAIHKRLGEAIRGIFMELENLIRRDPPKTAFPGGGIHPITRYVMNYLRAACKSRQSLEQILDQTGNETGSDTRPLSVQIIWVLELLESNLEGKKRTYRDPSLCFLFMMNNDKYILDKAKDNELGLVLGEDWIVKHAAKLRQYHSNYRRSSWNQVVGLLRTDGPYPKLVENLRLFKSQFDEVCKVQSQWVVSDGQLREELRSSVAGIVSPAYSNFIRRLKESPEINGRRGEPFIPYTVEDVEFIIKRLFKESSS

T2: CLuc-EXO70H4 (A. thaliana, UniProt Q9SF51 1-628)
T2 sequence: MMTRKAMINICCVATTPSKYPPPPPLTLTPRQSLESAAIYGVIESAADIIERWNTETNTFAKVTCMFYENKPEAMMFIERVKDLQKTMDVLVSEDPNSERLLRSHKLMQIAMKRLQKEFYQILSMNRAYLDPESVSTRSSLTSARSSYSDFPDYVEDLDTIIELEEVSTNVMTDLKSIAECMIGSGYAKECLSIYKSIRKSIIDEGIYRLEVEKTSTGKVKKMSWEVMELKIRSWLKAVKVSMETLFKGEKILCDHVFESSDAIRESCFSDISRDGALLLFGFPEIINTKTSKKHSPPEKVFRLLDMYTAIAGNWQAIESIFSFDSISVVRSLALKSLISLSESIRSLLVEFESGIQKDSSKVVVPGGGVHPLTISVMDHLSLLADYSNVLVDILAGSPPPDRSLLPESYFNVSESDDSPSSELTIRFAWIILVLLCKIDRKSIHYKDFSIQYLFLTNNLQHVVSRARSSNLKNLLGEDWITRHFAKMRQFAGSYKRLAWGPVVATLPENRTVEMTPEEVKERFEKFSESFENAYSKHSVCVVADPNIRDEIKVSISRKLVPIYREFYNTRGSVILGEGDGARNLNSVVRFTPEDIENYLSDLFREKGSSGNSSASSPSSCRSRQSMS

T3: CLuc-EXO70H1 (A. thaliana, UniProt Q8VY27 1-636)
T3 sequence: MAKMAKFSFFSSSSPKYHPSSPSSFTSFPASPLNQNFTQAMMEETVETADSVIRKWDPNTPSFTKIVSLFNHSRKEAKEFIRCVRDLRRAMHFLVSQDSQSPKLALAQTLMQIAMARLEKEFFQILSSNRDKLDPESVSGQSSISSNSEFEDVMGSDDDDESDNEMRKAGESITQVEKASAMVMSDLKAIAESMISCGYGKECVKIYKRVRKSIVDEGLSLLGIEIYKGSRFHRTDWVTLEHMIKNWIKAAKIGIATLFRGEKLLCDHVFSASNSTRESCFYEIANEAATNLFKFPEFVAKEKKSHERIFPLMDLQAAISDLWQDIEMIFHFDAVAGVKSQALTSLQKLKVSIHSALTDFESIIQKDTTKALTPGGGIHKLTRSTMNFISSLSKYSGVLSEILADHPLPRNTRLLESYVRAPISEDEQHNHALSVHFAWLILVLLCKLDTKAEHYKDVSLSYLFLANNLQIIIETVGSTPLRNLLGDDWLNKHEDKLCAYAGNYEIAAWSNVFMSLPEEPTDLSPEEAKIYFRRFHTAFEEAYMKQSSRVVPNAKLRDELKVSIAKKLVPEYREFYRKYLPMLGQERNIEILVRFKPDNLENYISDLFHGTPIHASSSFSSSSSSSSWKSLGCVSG

T4: CLuc-EXO70H2 (A. thaliana, UniProt O80625 1-637)
T4 sequence: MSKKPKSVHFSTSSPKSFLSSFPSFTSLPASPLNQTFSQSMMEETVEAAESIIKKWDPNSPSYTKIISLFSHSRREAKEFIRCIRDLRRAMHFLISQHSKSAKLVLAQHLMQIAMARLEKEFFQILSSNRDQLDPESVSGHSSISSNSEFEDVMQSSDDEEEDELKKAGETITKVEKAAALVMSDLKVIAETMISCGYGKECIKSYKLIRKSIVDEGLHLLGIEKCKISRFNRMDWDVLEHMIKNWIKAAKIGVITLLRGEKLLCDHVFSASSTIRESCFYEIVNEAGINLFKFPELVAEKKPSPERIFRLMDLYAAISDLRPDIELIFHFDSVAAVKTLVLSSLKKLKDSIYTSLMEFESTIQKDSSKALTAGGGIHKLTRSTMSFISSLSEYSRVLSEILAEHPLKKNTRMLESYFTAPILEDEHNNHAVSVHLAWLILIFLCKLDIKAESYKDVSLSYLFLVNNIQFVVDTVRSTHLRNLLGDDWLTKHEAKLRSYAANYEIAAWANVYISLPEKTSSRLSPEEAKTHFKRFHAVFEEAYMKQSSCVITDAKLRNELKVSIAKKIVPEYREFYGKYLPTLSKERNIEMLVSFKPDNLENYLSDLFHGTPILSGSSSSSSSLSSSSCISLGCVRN

B1: MLO2-NLuc (natural protein)
chain: MADQVKERTLEETSTWAVAVVCFVLLFISIVLEHSIHKIGTWFKKKHKQALFEALEKVKAELMLLGFISLLLTIGQTPISNICISQKVASTMHPCSAAEEAKKYGKKDAGKKDDGDGDKPGRRLLLELAESYIHRRSLATKGYDKCAEKGKVAFVSAYGIHQLHIFIFVLAVVHVVYCIVTYAFGKIKMRTWKSWEEETKTIEYQYSNDPERFRFARDTSFGRRHLNFWSKTRVTLWIVCFFRQFFGSVTKVDYLALRHGFIMAHFAPGNESRFDFRKYIQRSLEKDFKTVVEISPVIWFVAVLFLLTNSYGLRSYLWLPFIPLVVILIVGTKLEVIITKLGLRIQEKGDVVRGAPVVQPGDDLFWFGKPRFILFLIHLVLFTNAFQLAFFAWSTYEFNLNNCFHESTADVVIRLVVGAVVQILCSYVTLPLYALVTQMGSKMKPTVFNDRVATALKKWHHTAKNETKHGRHSGSNTPFSSRPTTPTHGSSPIHLLHNFNNRSVENYPSSPSPRYSGHGHHEHQFWDPESQHQEAETSTHHSLAHESSEPVLASVELPPIRTSKSLRDFSFKK
B2: MLO12-NLuc (natural protein)
chain: MAIKERSLEETPTWAVAVVCFVLLFISIMIEYFLHFIGHWFKKKHKKALSEALEKVKAELMLLGFISLLLVVLQTPVSEICIPRNIAATWHPCSNHQEIAKYGKDYIDDGRKILEDFDSNDFYSPRRNLATKGYDKCAEKGKVALVSAYGIHQLHIFIFVLAVFHVLYCIITYALGKTKMKKWKSWERETKTIEYQYANDPERFRFARDTSFGRRHLNIWSKSTFTLWITCFFRQFFGSVTKVDYLTLRHGFIMAHLPAGSAARFDFQKYIERSLEQDFTVVVGISPLIWCIAVLFILTNTHGWDSYLWLPFLPLIVILIVGAKLQMIISKLGLRIQEKGDVVKGAPVVEPGDDLFWFGRPRFILFLIHLVLFTNAFQLAFFVWSTYEFTLKNCFHHKTEDIAIRITMGVLIQVLCSYITLPLYALVTQMGTSMRPTIFNDRVANALKKWHHTAKKQTKHGHSGSNTPHSSRPTTPTHGMSPVHLLHNYNNRSLDQQTSFTASPSPPRFSDYSGQGHGHQHFFDPESQNHSYQREITDSEFSNSHHPQVDMASPVREEKEIVEHVKVDLSEFTFKK
B3: MLO6-NLuc (natural protein)
chain: MADQVKEKTLEETSTWAVAVVCFVLLLISIVIEKLIHKIGSWFKKKNKKALYEALEKVKAELMLMGFISLLLTIGQGYISNICIPKNIAASMHPCSASEEARKYGKKDVPKEDEEENLRRKLLQLVDSLIPRRSLATKGYDKCAEKGKVAFVSAYGMHQLHIFIFVLAVCHVIYCIVTYALGKTKMRRWKKWEEETKTIEYQYSHDPERFRFARDTSFGRRHLSFWSKSTITLWIVCFFRQFFRSVTKVDYLTLRHGFIMAHLAPGSDARFDFRKYIQRSLEEDFKTIVEINPVIWFIAVLFLLTNTNGLNSYLWLPFIPFIVILIVGTKLQVIITKLGLRIQEKGDVVKGTPLVQPGDHFFWFGRPRFILFLIHLVLFTNAFQLAFFVWSTYEFGLKNCFHESRVDVIIRISIGLLVQILCSYVTLPLYALVTQMGSKMKPTVFNERVATALKSWHHTAKKNIKHGRTSESTTPFSSRPTTPTHGSSPIHLLRNAPHKRSRSVDESFANSFSPRNSDFDSWDPESQHETAETSNSNHRSRFGEEESEKKFVSSSVELPPGPGQIRTQHEISTISLRDFSFKR

Tests used:
Assay in all cases: split reporter
CLuc-EXO70B2 = target: T1, CLuc-EXO70B2
CLuc-EXO70H4 [1] = target: T2, CLuc-EXO70H4
CLuc-EXO70H1 [2] = target: T3, CLuc-EXO70H1
CLuc-EXO70H2 = target: T4, CLuc-EXO70H2
CLuc-EXO70H4 [3] = target: T2, CLuc-EXO70H4; remark: listed apart in the source
CLuc-EXO70H1 [4] = target: T3, CLuc-EXO70H1; remark: listed apart in the source
[5] = target: CLuc-EXO70H7 (A. thaliana); conditions: scale: relative to the calmodulin positive control

Row | Binder | relative luminescence (CLuc-EXO70B2) | relative luminescence (CLuc-EXO70H4 [1]) | relative luminescence (CLuc-EXO70H1 [2]) | relative luminescence (CLuc-EXO70H2) | relative luminescence (CLuc-EXO70H4 [3]) | relative luminescence (CLuc-EXO70H1 [4]) | relative luminescence [5]
1 | B1 | ~0.56 relative to the calmodulin positive control | ~0.4 relative to the calmodulin positive control | ~0.39 relative to the calmodulin positive control | – | – | – | –
2 | B2 | – | – | ~0.37 relative to the calmodulin positive control | – | – | – | –
3 | B3 | – | ~0.67 relative to the calmodulin positive control | – | > 0.24 relative to the calmodulin positive control | > 0.24 relative to the calmodulin positive control | > 0.24 relative to the calmodulin positive control | > 0.24
